Molecular target: human GLP-1 receptor (human) (UniProt P43220)
Test: cell-based or functional assay

Chain of human GLP-1 receptor (human) (P43220 24-463 limits assumed): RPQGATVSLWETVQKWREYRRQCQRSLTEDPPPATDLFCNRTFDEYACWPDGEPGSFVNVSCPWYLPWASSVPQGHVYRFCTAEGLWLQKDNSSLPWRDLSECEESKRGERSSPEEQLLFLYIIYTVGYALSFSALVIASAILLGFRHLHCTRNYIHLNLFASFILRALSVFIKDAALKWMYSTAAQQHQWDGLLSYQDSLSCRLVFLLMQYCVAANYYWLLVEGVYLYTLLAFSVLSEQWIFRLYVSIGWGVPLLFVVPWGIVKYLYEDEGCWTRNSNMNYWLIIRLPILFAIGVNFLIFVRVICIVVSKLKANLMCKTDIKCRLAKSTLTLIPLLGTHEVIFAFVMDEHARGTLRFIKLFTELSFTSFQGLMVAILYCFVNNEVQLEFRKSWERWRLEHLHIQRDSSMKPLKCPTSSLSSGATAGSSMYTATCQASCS

Substance	EC50 (DiscoveRx GLP1R cAMP Hunter assay)	fold decrease of biological activity against free exenatide
Exenatide (exendin-4) (peptide)	66 pM	
Stably-linked N-[6-azidohexyloxy]-exenatide conjugate of Example 5 (non-releasable control conjugate, R1 = absent, conjugated to DBCO-Lys(DEAC)-[GL4-400] 40 kDa four-branched PEG) (peptide)	> 100000 pM	> 10000 fold

— patent US20140256626A1, “PEG CONJUGATES OF EXENATIDE” (priority 2011, published 2014)
